Measured values as given in the supplement of paper PMC5998384.

Assays:
HeLa Kyoto [1] = experiment: solubility in G1/S (NP-40 vs SDS abundance) (log2 ratio); higher = more soluble; settings: cell cycle stage: G1/S
HeLa Kyoto [2] = experiment: melting temperature (median over replicates), in situ; higher = more thermally stable
HeLa Kyoto [3] = experiment: solubility change mitosis vs G1/S (difference of NP-40 vs SDS log2 ratios) (log2 ratio difference); higher = more soluble in mitosis
HeLa Kyoto [4] = experiment: thermal stability score vs G1/S (z-score of summed log2 fold changes over temperatures); higher = more thermally stable than in G1/S
[5] = cell cycle stage: early G1 (4.5 h after nocodazole release)
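Throughout, for melting temperature (median over replicates), in situ: HeLa Kyoto cells synchronized by double thymidine or nocodazole block, proteins quantified by TMT10plex mass spectrometry, three independent biological replicates.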
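Throughout, for solubility change mitosis vs G1/S (difference of NP-40 vs SDS log2 ratios): synchronized HeLa Kyoto cells (double thymidine block for G1/S, nocodazole release for mitosis), protein amounts in NP-40 versus SDS lysates quantified by mass spectrometry, three biological replicates.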
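Throughout, for solubility in G1/S (NP-40 vs SDS abundance): HeLa Kyoto cells arrested at G1/S by double thymidine block, proteins quantified by TMT10plex mass spectrometry in mild NP-40 versus SDS extracts, three biological replicates.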
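Throughout, for thermal stability score vs G1/S (z-score of summed log2 fold changes over temperatures): synchronized HeLa Kyoto cells, proteins quantified by TMT10plex mass spectrometry, three biological replicates, mitosis taken 0.5 h after nocodazole release, G1/S directly after double thymidine block.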

| Sequence | solubility in G1/S (log2) (HeLa Kyoto [1]) | melting temperature (HeLa Kyoto [2]; cell cycle stage: G1/S) | melting temperature (HeLa Kyoto [2]; cell cycle stage: mitosis) | solubility change mitosis (log2) (HeLa Kyoto [3]) | thermal stability score (HeLa Kyoto [4]; [5]) | thermal stability score (HeLa Kyoto [4]; cell cycle stage: mitosis) |
| --- | --- | --- | --- | --- | --- | --- |
| MAPHDPGSLTTLVPWAAALLLALGVERALALPEICTQCPGSVQNLSKVAFYCKTTRELMLHARCCLNQKGTILGLDLQNCSLEDPGPNFHQAHTTVIIDLQANPLKGDLANTFRGFTQLQTLILPQHVNCPGGINAWNTITSYIDNQICQGQKNLCNNTGDPEMCPENGSCVPDGPGLLQCVCADGFHGYKCMRQGSFSLLMFFGILGATTLSVSILLWATQRRKAKTS [ATRAID] | -0.19 | 53.9 °C | 54.8 °C | 0.252 | 0.782 | 0.854 |
| MAPLGGAPRLVLLFSGKRKSGKDFVTEALQSRLGADVCAVLRLSGPLKEQYAQEHGLNFQRLLDTSTYKEAFRKDMIRWGEEKRQADPGFFCRKIVEGISQPIWLVSDTRRVSDIQWFREAYGAVTQTVRVVALEQSRQQRGWVFTPGVDDAESECGLDNFGDFDWVIENHGVEQRLEEQLENLIEFIRSRL [PMVK] | -0.0155 | 46.6 °C | 47.8 °C | -0.0243 | 1.41 | 1.71 |
| MAPLLLQLAVLGAALAAAALVLISIVAFTTATKMPALHRHEEEKFFLNAKGQKETLPSIWDSPTKQLSVVVPSYNEEKRLPVMMDEALSYLEKRQKRDPAFTYEVIVVDDGSKDQTSKVAFKYCQKYGSDKVRVITLVKNRGKGGAIRMGIFSSRGEKILMADADGATKFPDVEKLEKGLNDLQPWPNQMAIACGSRAHLEKESIAQRSYFRTLLMYGFHFLVWFLCVKGIRDTQCGFKLFTREAASRTFSSLHVERWAFDVELLYIAQFFKIPIAEIAVNWTEIEGSKLVPFWSWLQMGKDLLFIRLRYLTGAWRLEQTRKMN [ALG5] | -0.514 | 53 °C | 53.8 °C | -0.147 | -0.322 | -1.32 |
| MAPRRVRSFLRGLPALLLLLLFLGPWPAASHGGKYSREKNQPKPSPKRESGEEFRMEKLNQLWEKAQRLHLPPVRLAELHADLKIQERDELAWKKLKLDGLDEDGEKEARLIRNLNVILAKYGLDGKKDARQVTSNSLSGTQEDGLDDPRLEKLWHKAKTSGKFSGEELDKLWREFLHHKEKVHEYNVLLETLSRTEEIHENVISPSDLSDIKGSVLHSRHTELKEKLRSINQGLDRLRRVSHQGYSTEAEFEEPRVIDLWDLAQSANLTDKELEAFREELKHFEAKIEKHNHYQKQLEIAHEKLRHAESVGDGERVSRSREKHALLEGRTKELGYTVKKHLQDLSGRISRARHNEL [LRPAP1] | 0.724 | 55.3 °C | 54.1 °C | -0.0876 | 2.72 | -0.375 |
| MAPSGLKAVVGEKILSGVIRSVKKDGEWKVLIMDHPSMRILSSCCKMSDILAEGITIVEDINKRREPIPSLEAIYLLSPTEKSVQALIKDFQGTPTFTYKAAHIFFTDTCPEPLFSELGRSRLAKVVKTLKEIHLAFLPYEAQVFSLDAPHSTYNLYCPFRAEERTRQLEVLAQQIATLCATLQEYPAIRYRKGPEDTAQLAHAVLAKLNAFKADTPSLGEGPEKTRSQLLIMDRAADPVSPLLHELTFQAMAYDLLDIEQDTYRYETTGLSEAREKAVLLDEDDDLWVELRHMHIADVSKKVTELLRTFCESKRLTTDKANIKDLSQILKKMPQYQKELNKYSTHLHLADDCMKHFKGSVEKLCSVEQDLAMGSDAEGEKIKDSMKLIVPVLLDAAVPAYDKIRVLLLYILLRNGVSEENLAKLIQHANVQAHSSLIRNLEQLGGTVTNPGGSGTSSRLEPRERMEPTYQLSRWTPVIKDVMEDAVEDRLDRNLWPFVSDPAPTASSQAAVSARFGHWHKNKAGIEARAGPRLIVYVMGGVAMSEMRAAYEVTRATEGKWEVLIGSSHILTPTRFLDDLKALDKKLEDIALP [STXBP2] | -0.0683 | 49.3 °C | 49.2 °C | -0.19 | 0.25 | 1.22 |
| MAPSGSLAVPLAVLVLLLWGAPWTHGRRSNVRVITDENWRELLEGDWMIEFYAPWCPACQNLQPEWESFAEWGEDLEVNIAKVDVTEQPGLSGRFIITALPTIYHCKDGEFRRYQGPRTKKDFINFISDKEWKSIEPVSSWFGPGSVLMSSMSALFQLSMWIRTCHNYFIEDLGLPVWGSYTVFALATLFSGLLLGLCMIFVADCLCPSKRRRPQPYPYPSKKLLSESAQPLKKVEEEQEADEEDVSEEEAESKEGTNKDFPQNAIRQRSLGPSLATDKS [TMX1] | -0.0895 | 54.7 °C | 55.9 °C | -0.034 | 0.556 | 1.24 |
| MAPWPPKGLVPAMLWGLSLFLNLPGPIWLQPSPPPQSSPPPQPHPCHTCRGLVDSFNKGLERTIRDNFGGGNTAWEEENLSKYKDSETRLVEVLEGVCSKSDFECHRLLELSEELVESWWFHKQQEAPDLFQWLCSDSLKLCCPAGTFGPSCLPCPGGTERPCGGYGQCEGEGTRGGSGHCDCQAGYGGEACGQCGLGYFEAERNASHLVCSACFGPCARCSGPEESNCLQCKKGWALHHLKCVDIDECGTEGANCGADQFCVNTEGSYECRDCAKACLGCMGAGPGRCKKCSPGYQQVGSKCLDVDECETEVCPGENKQCENTEGGYRCICAEGYKQMEGICVKEQIPESAGFFSEMTEDELVVLQQMFFGIIICALATLAAKGDLVFTAIFIGAVAAMTGYWLSERSDRVLEGFIKGR [CRELD1] | -0.215 | 53.8 °C | 53 °C | -0.0647 | 0.91 | 1.48 |
| MAPYSLLVTRLQKALGVRQYHVASVLCQRAKVAMSHFEPNEYIHYDLLEKNINIVRKRLNRPLTLSEKIVYGHLDDPASQEIERGKSYLRLRPDRVAMQDATAQMAMLQFISSGLSKVAVPSTIHCDHLIEAQVGGEKDLRRAKDINQEVYNFLATAGAKYGVGFWKPGSGIIHQIILENYAYPGVLLIGTDSHTPNGGGLGGICIGVGGADAVDVMAGIPWELKCPKVIGVKLTGSLSGWSSPKDVILKVAGILTVKGGTGAIVEYHGPGVDSISCTGMATICNMGAEIGATTSVFPYNHRMKKYLSKTGREDIANLADEFKDHLVPDPGCHYDQLIEINLSELKPHINGPFTPDLAHPVAEVGKVAEKEGWPLDIRVGLIGSCTNSSYEDMGRSAAVAKQALAHGLKCKSQFTITPGSEQIRATIERDGYAQILRDLGGIVLANACGPCIGQWDRKDIKKGEKNTIVTSYNRNFTGRNDANPETHAFVTSPEIVTALAIAGTLKFNPETDYLTGTDGKKFRLEAPDADELPKGEFDPGQDTYQHPPKDSSGQHVDVSPTSQRLQLLEPFDKWDGKDLEDLQILIKVKGKCTTDHISAAGPWLKFRGHLDNISNNLLIGAINIENGKANSVRNAVTQEFGPVPDTARYYKKHGIRWVVIGDENYGEGSSREHAALEPRHLGGRAIITKSFARIHETNLKKQGLLPLTFADPADYNKIHPVDKLTIQGLKDFTPGKPLKCIIKHPNGTQETILLNHTFNETQIEWFRAGSALNRMKELQQ [ACO2] | 0.183 | 51.3 °C | 51.3 °C | -0.179 | 0.706 | 0.579 |
| MAQAKINAKANEGRFCRSSSMADRSSRLLESLDQLELRVEALREAATAVEQEKEILLEMIHSIQNSQDMRQISDGEREELNLTANRLMGRTLTVEVSVETIRNPQQQESLKHATRIIDEVVNKFLDDLGNAKSHLMSLYSACSSEVPHGPVDQKFQSIVIGCALEDQKKIKRRLETLLRNIENSDKAIKLLEHSKGAGSKTLQQNAESRFN [BAG2] | 0.345 | 50.9 °C | 50.9 °C | 0.474 | -2.02 | -3.48 |
| MAQCVQSVQELIPDSFVPCVAALCSDEAERLTRLNHLSFAELLKPFSRLTSEVHMRDPNNQLHVIKNLKIAVSNIVTQPPQPGAIRKLLNDVVSGSQPAEGLVANVITAGDYDLNISATTPWFESYRETFLQSMPALDHEFLNHYLACMLVASSSEAEPVEQFSKLSQEQHRIQHNSDYSYPKWFIPNTLKYYVLLHDVSAGDEQRAESIYEEMKQKYGTQGCYLLKINSRTSNRASDEQIPDPWSQYLQKNSIQNQESYEDGPCTITSNKNSDNNLLSLDGLDNEVKDGLPNNFRAHPLQLEQSSDPSNSIDGPDHLRSASSLHETKKGNTGIIHGACLTLTDHDRIRQFIQEFTFRGLLPHIEKTIRQLNDQLISRKGLSRSLFSATKKWFSGSKVPEKSINDLKNTSGLLYPPEAPELQIRKMADLCFLVQHYDLAYSCYHTAKKDFLNDQAMLYAAGALEMAAVSAFLQPGAPRPYPAHYMDTAIQTYRDICKNMVLAERCVLLSAELLKSQSKYSEAAALLIRLTSEDSDLRSALLLEQAAHCFINMKSPMVRKYAFHMILAGHRFSKAGQKKHALRCYCQAMQVYKGKGWSLAEDHINFTIGRQSYTLRQLDNAVSAFRHILINESKQSAAQQGAFLREYLYVYKNVSQLSPDGPLPQLPLPYINSSATRVFFGHDRRPADGEKQAATHVSLDQEYDSESSQQWRELEEQVVSVVNKGVIPSNFHPTQYCLNSYSDNSRFPLAVVEEPITVEVAFRNPLKVLLLLTDLSLLWKFHPKDFSGKDNEEVKQLVTSEPEMIGAEVISEFLINGEESKVARLKLFPHHIGELHILGVVYNLGTIQGSMTVDGIGALPGCHTGKYSLSMSVRGKQDLEIQGPRLNNTKEEKTSVKYGPDRRLDPIITEEMPLLEVFFIHFPTGLLCGEIRKAYVEFVNVSKCPLTGLKVVSKRPEFFTFGGNTAVLTPLSPSASENCSAYKTVVTDATSVCTALISSASSVDFGIGTGSQPEVIPVPLPDTVLLPGASVQLPMWLRGPDEEGVHEINFLFYYESVKKQPKIRHRILRHTAIICTSRSLNVRATVCRSNSLENEEGRGGNMLVFVDVENTNTSEAGVKEFHIVQVSSSSKHWKLQKSVNLSENKDTKLASREKGKFCFKAIRCEKEEAATQSSEKYTFADIIFGNEQIISSASPCADFFYRSLSSELKKPQAHLPVHTEKQSTEDAVRLIQKCSEVDLNIVILWKAYVVEDSKQLILEGQHHVILRTIGKEAFSYPQKQEPPEMELLKFFRPENITVSSRPSVEQLSSLIKTSLHYPESFNHPFHQKSLCLVPVTLLLSNCSKADVDVIVDLRHKTTSPEALEIHGSFTWLGQTQYKLQLKSQEIHSLQLKACFVHTGVYNLGTPRVFAKLSDQVTVFETSQQNSMPALIIISNV [TRAPPC8] | -0.261 | 51.5 °C | 49.9 °C | -0.114 | -0.214 | -0.392 |
| MAQFDTEYQRLEASYSDSPPGEEDLLVHVAEGSKSPWHHIENLDLFFSRVYNLHQKNGFTCMLIGEIFELMQFLFVVAFTTFLVSCVDYDILFANKMVNHSLHPTEPVKVTLPDAFLPAQVCSARIQENGSLITILVIAGVFWIHRLIKFIYNICCYWEIHSFYLHALRIPMSALPYCTWQEVQARIVQTQKEHQICIHKRELTELDIYHRILRFQNYMVALVNKSLLPLRFRLPGLGEAVFFTRGLKYNFELILFWGPGSLFLNEWSLKAEYKRGGQRLELAQRLSNRILWIGIANFLLCPLILIWQILYAFFSYAEVLKREPGALGARCWSLYGRCYLRHFNELEHELQSRLNRGYKPASKYMNCFLSPLLTLLAKNGAFFAGSILAVLIALTIYDEDVLAVEHVLTTVTLLGVTVTVCRSFIPDQHMVFCPEQLLRVILAHIHYMPDHWQGNAHRSQTRDEFAQLFQYKAVFILEELLSPIVTPLILIFCLRPRALEIIDFFRNFTVEVVGVGDTCSFAQMDVRQHGHPQWLSAGQTEASVYQQAEDGKTELSLMHFAITNPGWQPPRESTAFLGFLKEQVQRDGAAASLAQGGLLPENALFTSIQSLQSESEPLSLIANVVAGSSCRGPPLPRDLQGSRHRAEVASALRSFSPLQPGQAPTGRAHSTMTGSGVDARTASSGSSVWEGQLQSLVLSEYASTEMSLHALYMHQLHKQQAQAEPERHVWHRRESDESGESAPDEGGEGARAPQSIPRSASYPCAAPRPGAPETTALHGGFQRRYGGITDPGTVPRVPSHFSRLPLGGWAEDGQSASRHPEPVPEEGSEDELPPQVHKV [ATG9A] | 0.0202 | 52 °C | 51.8 °C | -0.221 | -1.02 | -0.681 |
